We go through 1 protein from article PMC9975500, “High level expression of nicotinamide nucleoside kinase from Saccharomyces cerevisiae and its purification and immobilization by one-step method” (Frontiers in Bioengineering and Biotechnology, 2023).

Substrate in data set [1]: Nc1ncnc2c1ncn2[C@@H]1O[C@H](COP(=O)(O)OP(=O)(O)OP(=O)(O)O)[C@@H](O)[C@H]1O
Put plainly: HPLC of NMN formed, Michaelis-Menten fit. It counts as biochemical, Saccharomyces cerevisiae. The following applies: free enzyme, NR 1 mM, 10 mM MgCl2, 20 mM Tris-HCl pH 5.8, optimal temperature (30 °C for free enzyme).

Substrate in the data set “purified protein”: NC(=O)c1ccc[n+]([C@@H]2O[C@H](CO)[C@@H](O)[C@H]2O)c1
Put plainly: purified protein. The following applies: free enzyme, ATP 1 mM, 10 mM MgCl2, 20 mM Tris-HCl pH 5.8, optimal temperature (30 °C for free enzyme).

B1: reScNRK1 (recombinant nicotinamide riboside kinase1; nicotinamide nucleoside kinase1) (Saccharomyces cerevisiae S288C) (protein)
chain: MTSKKVILVALSGCSSSGKTTIAKLTASLFTKATLIHEDDFYKHDNEVPVDAKYNIQNWDSPEALDFKLFGKELDVIKQTGKIATKLIHNNNVDDPFTKFHIDRQVWDELKAKYDSINDDKYEVVIVDGFMIFNNTGISKKFDLKILVRAPYEVLKKRRASRKGYQTLDSFWVDPPYYFDEFVYESYRANHAQLFVNGDVEGLLDPRKSKNIKEFINDDDTPIAKPLSWVCQEILKLCKD
notes: free enzyme
Turning to B1, the Km is reported as 54.27 mM in data set [1] and 18.69 mM in the data set “purified protein”. The Vmax in data set [1] was 137 µmol/min/mg; in the data set “purified protein” it was 98.4 µmol/min/mg.

By Km is commonly meant the concentration of substrate that gives half-maximal velocity. As usually defined, the Vmax is the top rate of the reaction or transport when substrate is in excess.
